Experimental findings from FireProtDB (doi:10.1111/j.1432-1033.1995.tb20713.x) are described below.

The conditions of the data set: Saccharomyces cerevisiae (strain ATCC 204508 / S288c), Fluorescence, reversible: yes, whole UniProt chain shown.
Where [1] appears, read: pH 4.6, Thermal, Acetic acid-NaOH 30 mM.
The mark [2] stands for this setting: pH 7.5, 5.2 °C, GdnHCl, MOPS-NaOH 30 mM.
The mark [3] stands for this setting: pH 7.5, 10.2 °C, GdnHCl, MOPS-NaOH 30 mM.
The mark [4] stands for this setting: pH 7.5, 15.2 °C, GdnHCl, MOPS-NaOH 30 mM.
The mark [5] stands for this setting: pH 7.5, Thermal, MOPS-NaOH 30 mM.

B1: Adenylate kinase wild type, P07170 (protein)
chain: MSSSESIRMVLIGPPGAGKGTQAPNLQERFHAAHLATGDMLRSQIAKGTQLGLEAKKIMDQGGLVSDDIMVNMIKDELTNNPACKNGFILDGFPRTIPQAEKLDQMLKEQGTPLEKAIELKVDDELLVARITGRLIHPASGRSYHKIFNPPKEDMKDDVTGEALVQRSDDNADALKKRLAAYHAQTEPIVDFYKKTGIWAGVDASQPPATVWADILNKLGKD
Turning to B1, the unfolding free energy by setting is: (pH 4.6, 25 °C, Thermal, Acetic acid-NaOH 30 mM) 2.15 kcal/mol; under setting [2], 3.97 kcal/mol; under setting [3], 4.9 kcal/mol; under setting [4], 5.47 kcal/mol; (pH 7.5, 25 °C, Thermal, MOPS-NaOH 30 mM) 3.82 kcal/mol. Besides, the Tm reads like this: under setting [1], 48.6 °C; under setting [5], 47.7 °C. Besides, the “unfolding enthalpy (van 't Hoff)” value turned out to be 57.4 kcal/mol under setting [1] and 81.3 kcal/mol under setting [5]. For the same protein, the denaturant m value under setting [2] turned out to be 5.28 kcal/mol/M, the denaturant m value under setting [3] was 6.98 kcal/mol/M and the denaturant m value under setting [4] is 7.29 kcal/mol/M. Moreover, the “denaturant midpoint (higher = more stable)” value runs as follows: under setting [2], 0.76 M; under setting [3], 0.7 M; under setting [4], 0.75 M.
